Test results published in publication PMC9287160 (2022).

Experiments:
Test in all cases: BLI
[1] = target: T1, recombinant human αMβ2 αI domain (human)
T1 chain: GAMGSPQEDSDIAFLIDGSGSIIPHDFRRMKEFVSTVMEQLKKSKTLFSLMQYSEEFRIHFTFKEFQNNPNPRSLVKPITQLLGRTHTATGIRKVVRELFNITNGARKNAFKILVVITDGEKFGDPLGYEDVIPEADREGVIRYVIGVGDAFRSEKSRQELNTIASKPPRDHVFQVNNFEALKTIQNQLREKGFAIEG

[2] = target: T2, human integrin αMβ2 headpiece fragment (human, UniProt P11215 17-1152; P05107 23-482)
[3] = target: T1, recombinant human αMβ2 αI domain
[4] = target: T2, human integrin αMβ2 headpiece fragment; remark: listed apart in the source

koff [1]: 0.0032 s⁻¹
koff [2]: 0.00047 s⁻¹
Kd [3]: 6.6 nM
Kd [4]: 0.85 nM
B1: biotinylated avi-tagged hCD11bNb1 (VHH)
VHH: QVQLVETGGGLVQAGGSLRLSCAASGNINSFNAMGWFRQAPGKQRELVAAITFGGRTNYADSVKGRFTISRDNTKGSVYLQMNSLKPEDTAVYYCAASENNLLTGVWHYWGRGTQVTVSS
modifications: biotin
